Experiments:
VEGF165 = VEGF165 (human, UniProt P15692-4 27-191); experiment: SPR; 10 mM Tris-HCl, 150 mM NaCl, 5 mM KCl, pH 7.4; EMSA room temperature 30 min, 12% PAGE in TBE; SPR 25 C (RB1 SPR with 650 mM NaCl); details: protein: recombinant, chain copies: 2
PDGF-AA = PDGF-AA (human, UniProt P04085 87-211); experiment: as above; details: protein: recombinant, chain copies: 2
VEGF121 = VEGF121 (human, UniProt P15692-9 27-147); experiment: EMSA; 10 mM Tris-HCl, 150 mM NaCl, 5 mM KCl, pH 7.4; EMSA room temperature 30 min, 12% PAGE in TBE; SPR 25 C (RB1 SPR with 650 mM NaCl); details: protein: recombinant, chain copies: 2
VEGF121, sequence (P15692 other isoform, or with tags, fused parts or gaps): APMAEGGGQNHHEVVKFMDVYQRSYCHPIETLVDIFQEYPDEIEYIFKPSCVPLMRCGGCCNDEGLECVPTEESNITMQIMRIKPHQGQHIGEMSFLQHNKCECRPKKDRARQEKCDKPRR

[1] = biological target: c-KIT intracellular domain (human, UniProt P10721 544-976); experiment: as above; details: protein: recombinant; label: 5'-FITC; G4
c-KIT intracellular domain, sequence (P10721 544-976): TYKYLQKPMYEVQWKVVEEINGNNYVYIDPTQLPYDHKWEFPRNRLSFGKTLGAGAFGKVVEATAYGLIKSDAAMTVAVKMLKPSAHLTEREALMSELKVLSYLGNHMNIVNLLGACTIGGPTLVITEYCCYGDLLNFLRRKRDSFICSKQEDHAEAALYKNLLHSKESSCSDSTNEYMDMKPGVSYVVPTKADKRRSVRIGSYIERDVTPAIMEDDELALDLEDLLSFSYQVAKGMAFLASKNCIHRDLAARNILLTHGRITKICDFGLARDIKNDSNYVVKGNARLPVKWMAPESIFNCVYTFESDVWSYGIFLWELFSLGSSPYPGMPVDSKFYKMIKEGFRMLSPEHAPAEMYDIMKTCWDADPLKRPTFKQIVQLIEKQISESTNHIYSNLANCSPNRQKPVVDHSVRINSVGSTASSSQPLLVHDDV

VEGF165, human = VEGF165, human (Homo sapiens (Human), UniProt P15692 27-191); experiment: SPR; 10 mM Tris-HCl pH 7.4, 150 mM NaCl, 5 mM KCl, 25 C; protein amine-coupled on CM5; details: chain copies: 2
VEGF165, human, sequence (P15692 other isoform, or with tags, fused parts or gaps): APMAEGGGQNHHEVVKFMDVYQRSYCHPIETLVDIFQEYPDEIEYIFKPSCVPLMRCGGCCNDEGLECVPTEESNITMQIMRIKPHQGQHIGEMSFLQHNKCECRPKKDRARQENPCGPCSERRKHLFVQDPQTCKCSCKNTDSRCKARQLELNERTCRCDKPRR

VEGF121, human = VEGF121, human (Homo sapiens (Human), UniProt P15692 27-147); experiment: EMSA; 2.6 uM VEGF121; details: chain copies: 2
PDGF-AA, human = PDGF-AA, human (Homo sapiens (Human), UniProt P04085 87-211); experiment: SPR; 10 mM Tris-HCl pH 7.4, 150 mM NaCl, 5 mM KCl, 25 C; protein amine-coupled on CM5; details: chain copies: 2
RB1, human = biological target: T1, RB1, human (Homo sapiens (Human), UniProt P06400); experiment: SPR; 10 mM Tris-HCl pH 7.4, 650 mM NaCl, 5 mM KCl, 25 C; DNA on SA chip, Scatchard; details: label: 5'-biotin
T1 sequence: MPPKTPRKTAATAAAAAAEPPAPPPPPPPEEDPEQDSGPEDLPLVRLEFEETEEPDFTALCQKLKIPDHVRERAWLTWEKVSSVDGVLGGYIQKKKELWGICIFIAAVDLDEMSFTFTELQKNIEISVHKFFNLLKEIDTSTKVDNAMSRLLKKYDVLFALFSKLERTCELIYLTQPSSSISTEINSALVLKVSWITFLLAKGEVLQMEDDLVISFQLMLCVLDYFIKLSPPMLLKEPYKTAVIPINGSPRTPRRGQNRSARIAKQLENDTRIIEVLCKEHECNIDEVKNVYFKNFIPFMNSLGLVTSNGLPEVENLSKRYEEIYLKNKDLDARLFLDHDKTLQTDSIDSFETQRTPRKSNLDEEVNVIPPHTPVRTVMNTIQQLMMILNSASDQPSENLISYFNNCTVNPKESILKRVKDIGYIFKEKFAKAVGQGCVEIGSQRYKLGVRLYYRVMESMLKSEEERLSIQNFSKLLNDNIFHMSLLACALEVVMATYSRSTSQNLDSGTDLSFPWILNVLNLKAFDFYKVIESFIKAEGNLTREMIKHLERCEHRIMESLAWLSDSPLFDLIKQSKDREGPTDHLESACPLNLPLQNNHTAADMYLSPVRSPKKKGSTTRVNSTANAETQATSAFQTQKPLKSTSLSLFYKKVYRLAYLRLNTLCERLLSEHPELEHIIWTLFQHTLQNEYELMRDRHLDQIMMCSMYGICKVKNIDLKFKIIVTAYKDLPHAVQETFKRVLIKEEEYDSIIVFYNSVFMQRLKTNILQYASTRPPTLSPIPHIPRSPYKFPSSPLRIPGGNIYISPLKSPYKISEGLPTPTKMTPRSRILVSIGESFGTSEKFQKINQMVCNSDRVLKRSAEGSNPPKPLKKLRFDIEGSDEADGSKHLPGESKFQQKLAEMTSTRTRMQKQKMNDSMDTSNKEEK

[2] = label: 5'-FITC (gel shift), none (SPR), parallel G4
[3] = label: 5'-TAMRA (gel shift), parallel G4, monomeric and multimeric bands
[4] = label: none (SPR), not expected to form G4
[5] = label: 5'-TAMRA (gel shift), 5'-biotin (SPR to RB1), antiparallel G4

Binder: GGGGCGGGCCGGGGGCGGGGTCCCGGCGGGGCGG (structured_DNA)
- Kd (VEGF165; [2]): 170 nM
- binding result (PDGF-AA; [2]): no binding
- binding result (VEGF121; [2]): no binding

Binder: GGAGGCGGGGGGGGGGGGGCGGGGGCGGGGGCGGGGGAGGGGCGCGGC (structured_DNA)
- Kd (VEGF165; [3]): 10 nM
- binding result (VEGF121; [3]): no binding

Binder: GGAGGCTTTTTTTTTTTTTCTTTTTCTTTTTCTTTTTATTTTCGCGGC (ssDNA) [PDGFA G4 Mut.]
- binding result (PDGF-AA; [4]): no binding

Binder: CGGGCGGGCGCGAGGGAGGGG (structured_DNA) [c-KIT G4-1]
- binding result [1]: no binding

Binder: AGGGAGGGCGCTGGGAGGAGGG (structured_DNA) [c-KIT G4-2]
- binding result [1]: no binding

Binder: CGGGGGGTTTTGGGCGGC (structured_DNA)
- Kd (VEGF165; [5]): 300 nM
- binding result (PDGF-AA; [5]): no binding
- binding result (VEGF121; [5]): no binding

Binder: GGTTGGTGTGGTTGG (structured_DNA) [TBA (15-mer thrombin-binding aptamer)]
- binding result (VEGF165; label: none, G4): no binding
- binding result (PDGF-AA; label: none, G4): no binding

Binder: GTTTCTTTCCGGTTTCGTTTTCCCGGCGGGGCGG (ssDNA) [VEGFA G4 Mut.]
- binding result (VEGF165; [4]): no binding

Binder: GGAGGCGGGGGGGGGGGGGCGGGGGCGGGGGCGGGGGAGGGGCGCGGC (structured_DNA, G-quadruplex (promoter-derived))
- Kd (VEGF165, human): 10 nM
- binding result (VEGF121, human; label: TAMRA): no binding

Binder: GGTTGGTGTGGTTGG (structured_DNA, G-quadruplex) [TBA]
- binding result (PDGF-AA, human): no binding
- binding result (VEGF165, human): no binding

Binder: CGTTTTGTTTTGGGCGGC (ssDNA) [RB1 G4 mutant]
- binding result (RB1, human): no binding

Binder: CGGGGGGTTTTGGGCGGC (structured_DNA, G-quadruplex (promoter-derived))
- binding result (PDGF-AA, human): no binding
- Kd (VEGF165, human): 300 nM
- binding result (VEGF121, human; label: TAMRA): no binding

Binder: GGGGCGGGCCGGGGGCGGGGTCCCGGCGGGGCGG (structured_DNA, G-quadruplex (promoter-derived))
- binding result (PDGF-AA, human): no binding
- binding result (VEGF121, human; label: FITC): no binding
